{"source": "paper PMC4498696", "about": "(PLoS Pathogens, 2015)", "binders": {"B1": {"name": "motavizumab IgG (antibody, V domains shown)", "VH": "QVTLRESGPALVKPTQTLTLTCTFSGFSLSTAGMSVGWIRQPPGKALEWLADIWWDDKKHYNPSLKDRLTISKDTSKNQVVLKVTNMDPADTATYYCARDMIFNFYFDVWGQGTTVTVSS", "VL": "DIQMTQSPSTLSASVGDRVTITCSASSRVGYMHWYQQKPGKAPKLLIYDTSKLASGVPSRFSGSGSGTEFTLTISSLQPDDFATYYCFQGSGYPFTFGGGTKVEIK"}, "B2": {"name": "AM14 IgG (antibody, V domains shown)", "VH": "EVQLVESGGGVVQPGRSLRLSCAASGFSFSHYAMHWVRQAPGKGLEWVAVISYDGENTYYADSVKGRFSISRDNSKNTVSLQMNSLRPEDTALYYCARDRIVDDYYYYGMDVWGQGATVTVSS", "VL": "DIQMTQSPSSLSASVGDRVTITCQASQDIKKYLNWYHQKPGKVPELLMHDASNLETGVPSRFSGRGSGTDFTLTISSLQPEDIGTYYCQQYDNLPPLTFGGGTKVEIK"}, "B3": {"name": "AM14 Fab (Fab, V domains shown)", "VH": "EVQLVESGGGVVQPGRSLRLSCAASGFSFSHYAMHWVRQAPGKGLEWVAVISYDGENTYYADSVKGRFSISRDNSKNTVSLQMNSLRPEDTALYYCARDRIVDDYYYYGMDVWGQGATVTVSS", "VL": "DIQMTQSPSSLSASVGDRVTITCQASQDIKKYLNWYHQKPGKVPELLMHDASNLETGVPSRFSGRGSGTDFTLTISSLQPEDIGTYYCQQYDNLPPLTFGGGTKVEIK"}}, "key": {"[1]": {"target": "T1, biotinylated prefusion RSV F DS-Cav1, subtype B (Human respiratory syncytial virus B, …, UniProt P13843, stabilised, biotin)", "T1 construct": "also called prefusion RSV F derived from B subtype; source: biotinylated protein coupled to avidin-coated beads; copies: 3 + 3", "experiment": "Luminex bead binding assay", "settings": "both partners purified"}, "[2]": {"target": "T2, biotinylated AviTagged prefusion RSV F DS-Cav1, subtype A (strain A2) (Human respiratory syncytial virus A, …, stabilised, biotin (by biotin ligase BirA, on the AviTag))", "T2 construct": "also called Biotinylated DS-Cav1; immobilized prefusion RSV F; source: FreeStyle 293-F, transfected, purified; biotinylated with BirA, Superdex 200; copies: 3 + 3", "experiment": "Luminex bead binding assay; biotinylated RSV F proteins coupled to avidin-coated MagPlex beads (1 μg per 50,000 beads); IgG in 10-fold serial dilutions 1 μM to 0.1 pM; PE-conjugated anti-human IgG Fc; PBS, 0.1% BSA, 0.05% Tween 20", "settings": "both partners purified"}, "[3]": {"target": "prefusion-stabilized RSV F ectodomain DS-Cav1 (strain A2), furin-cleaved trimer with foldon, tags removed (respiratory syncytial virus, strain A2 …, UniProt P03420)", "experiment": "cell-based or functional assay"}, "[4]": {"target": "full-length prefusion F (RSV F residues 1-574 with the DS-Cav1 stabilizing mutations) on the cell surface (Human respiratory syncytial virus A, …, UniProt P03420, stabilised)", "experiment": "flow cytometry on cells; Expi293 cells expressing RSV F 1-574 DS-Cav1 or its N426D variant; antibodies 1 μg/ml, 1 hour at 4°C; Alexa488 anti-human secondary; normalized to motavizumab binding", "settings": "one partner purified"}, "[5]": {"target": "T2, biotinylated AviTagged prefusion RSV F …", "experiment": "SPR; biotinylated DS-Cav1 immobilised on an SA chip (292 RU), Biacore X100; AM14 Fab 5 nM to 19.5 pM in HBS-EP+; 1:1 binding model", "settings": "both partners purified"}}}
{"binder": "B1", "values": [{"measurement": "binding result", "setting": "[1]", "result": "binds"}]}
{"binder": "B2", "values": [{"measurement": "EC50", "setting": "[2]", "result": 0.63, "unit": "nM"}, {"measurement": "IC50 of neutralisation of RSV strain A2 (F of the virus), microneutralization on HEp-2 cells", "setting": "[3]", "result": 0.0124, "unit": "µg/mL"}, {"measurement": "IC50 of neutralisation of RSV strain A Long (F of the virus), microneutralization on HEp-2 cells", "setting": "[3]", "result": 0.0136, "unit": "µg/mL"}, {"measurement": "binding result", "setting": "[4]", "result": "binds"}]}
{"binder": "B3", "values": [{"measurement": "Kd", "setting": "[5]", "result": 0.18, "unit": "nM"}, {"measurement": "koff", "setting": "[5]", "result": 0.0034, "unit": "s⁻¹"}, {"measurement": "kon", "setting": "[5]", "result": "1.87e+07", "unit": "M⁻¹ s⁻¹"}]}
